In US8410045B2, “Camptothecin-peptide conjugates and pharmaceutical compositions containing the same” (Drais Pharmaceuticals, Inc., priority 2006, dated 2013):
“Also recorded” adds a separate entry of the source. Where two headings read alike, the source gives them in different places. Marks after values point to notes of the source that are not given here. Where a SMILES comes first, the peptide text is derived from it. The star is where a group is joined. X1 = CCc1c2c(nc3ccc(OC(=O)CCCCCN4C(=O)CC(*)C4=O)cc13)-c1cc3c(c(=O)n1C2)COC(=O)[C@]3(O)CC

How the values were obtained:
[1] = Stability of conjugates in citrated plasma at 37° C. (half life time, HPLC fluorescence); type: in vitro ADME; conditions: dog
Outline: (§1)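 Conjugates at 2.55 μM incubated at 37° C in citrated plasma of several species, including human and dog. After TFA/acid extraction, released free camptothecin derivative (e.g. SN38) measured by reversed-phase C18 HPLC with fluorescence detection; half-life taken as time to 50 mol% release.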

[2] = Pharmacokinetic study in the dog (blood, HPLC fluorescence); type: in vivo; conditions: dog blood; non-toxic doses (DPV1047-BCH-SN38 ≦20 mg/kg, DPV1047-MIC-SN38 ≦50 mg/kg)
Experimental: Peripheral blood samples were taken at different times following infusion for pharmacokinetic analysis.
Blood samples (2.5 mL) were collected in 5 mL in trisodium citrate tubes (Sarstedt S-Monovette® 9NC) containing 2.5 mL of 5% TFA (v/v) and vortexed for 5 seconds before storage at −80° C. (for less than two weeks).
Samples were then analyzed after a TFA and acetonitrile extraction by an HPLC fluorescence method, described below. […] Whole blood samples were acidified with TFA to protect the ester link of the conjugate against hydrolysis and allow protein precipitation to improve conjugate and SN38 recovery.
Five hundred microliters of each sample were then placed in 1.5 mL micro-centrifuge tubes to and centrifuged at 16000×g 3 min at +4° C. […] Methanol (100 μL) was then immediately added and the mixture stirred vigorously (vortex) for 5 seconds. Samples were then centrifuged at 16000×g, 3 min at room temperature.
One hundred and fifty microliters of the supernatant was recovered for HPLC analysis.
DPV1047-BCH-SN38 and its metabolite SN38 were separated by high-performance liquid chromatography (HPLC Agilent 1100 with a fluorescence detector) using the following method: […]

[3] = Toxicity study in the beagle dog following intravenous infusion
Experimental: Adult female and male beagle dogs were individually housed with free access to tap water. A pellet diet was distributed daily.
Dogs (1 dog for each drug and dose) were infused intravenously through the cephalic or saphenous vein. These intravenous infusions were made using a single-use catheter (Intraflon®) and a plastic syringe connected to a syringe pump. During the injection, the animals were restrained in a hammock.
Conjugates were dissolved in water for injection (10% of final volume) and diluted with 0.9% NaCl to their final concentration. The volume administered to each animal was adjusted according to body weight.
Clinical signs, hematological and intestinal toxicities were monitored during a period of 15 days after infusion. Each animal was checked at least twice a day for mortality or signs of morbidity.
The body weight of each animal was recorded on the day −1, 4, 10 and 13.
Peripheral blood samples were taken into EDTA tubes for the determination of following parameters on days −1, 5, 11 and 14: erythrocytes, hemoglobin, mean cell volume, packed cell volume, mean cell hemoglobin concentration, mean cell hemoglobin, thrombocytes, leucocytes, differential white cell count with cell morphology.

[4] = Stability of conjugates in citrated plasma at 37° C. (half life time, HPLC fluorescence); type: in vitro ADME, human; conditions: human, plasma
Outline: as §1

[5] = as above; type: in vitro ADME; conditions: DPV1047-linker-SN38, 2.55 μM
Experimental: The stability of the conjugates was tested in citrated plasma (10% (v/v) sodium citrate buffer, 0.106M) from different species (see Table 1 below). The conjugates at 2.55 μM were incubated at 37° C. in plasma. Samples were analysed using the HPLC fluorescence method described below (see chromatographic equipment and conditions) following TFA/acetonitrile extraction and the amount of free camptothecin, analogs or derivatives thereof (e.g. SN38) released by the conjugates was measured.
Chromatographic equipment and conditions: 150 μL of each sample were placed in 1.5 mL micro-centrifuge tubes. 450 μL of 5% (v/v) TFA in H2O was added to each tube and the mixture was vortexed for 5 seconds. Samples were then centrifuged at 16000 g, 3 minutes at +4° C. 100 μL of supernatant were placed in 1.5 mL micro-centrifuge tubes. Methanol (100 μL) was then immediately added and vortexed for 5 seconds. Samples were then centrifuged at 16000 g, 3 minutes at room temperature. 150 μL of supernatant were recovered for HPLC analysis. Conjugates, metabolites and camptothecin derivative (i.e. SN38) were separated by high-performance liquid chromatography (HPLC; Agilent 1100 series equipped with a fluorescence detector) using a 4.6×100 mm ([…] particle size) Luna C18(2) column (Phenomenex ref. 00D-4251-E0, Le Pecq, France). The aqueous component of the mobile phase (A) was 0.1% (v/v) TFA in water. The organic modifier (B) was acetonitrile containing 0.1% (v/v) TFA. For the conjugate and its metabolites an elution gradient increasing linearly the proportion of B from 15 to 37% in 2 min, from 37 to 47% in 6 min, followed by 2 min at 90% was applied with a constant flow rate of 1.2 mL/min. The proportion of B was then returned to the initial condition for 3.0 min.
The half life time of conjugate corresponds to the time necessary to have 50% by mole of free camptothecin, analogs or derivatives thereof released by the conjugates of the invention. In human plasma, the half life time of conjugate DPV1047-linker #1-SN38 (less than 5 mins) was shorter than that of conjugate DPV1047-linker #2-SN38 (6-7 mins), which, in turn, was shorter than that of conjugate DPV1047-linker #3-SN38 (12 mins).

[6] = background statement; cited from earlier work
[7] = tested on: NCI-H460 human epithelial lung carcinoma cells; assay: In vitro cytotoxicity (WST-1 cell viability); type: cell-based; conditions: Table 11; 48-h continuous exposure; mean of three independent experiments; read-out: Drug concentration that inhibits 50% of cell viability (IC50), NCI-H460
Experimental: (§2) Cytotoxic evaluation was performed by seeded cells for 24 h prior to the addition of the therapeutic compound. Cells were incubated for 48 h (37° C.) with different dilutions of the therapeutic compound. Cell viability was then assessed using the WST-1 assay (Roche). The results are expressed as mean cytotoxic concentrations (IC50 value or molar concentration that inhibits 50% of cell viability) that were estimated from sigmoid regression, using Graph Pad Prism 3.02 software.
NCI-H460 (ATCC#: HTB-177): human epithelial lung carcinoma cells. Cells were cultured in RPMI 1640+glutamax and 10% of fetal bovine serum. Cells were plated at a density of 10,000 cells/well in 96-well plates.

[8] = tested on: HCT 116 human epithelial colon carcinoma cells; assay: cells; type: cell-based; conditions: Table 11; 48-h continuous exposure; mean of three independent experiments; read-out: Drug concentration that inhibits 50% of cell viability (IC50), HCT 116
Experimental: as §2
HCT 116 (ATCC #: CCL-247): human epithelial colon carcinoma cells. Cells were cultured in Mc Coy's 5a medium+1.5 mM L-glutamine and 10% fetal bovine serum. Cells were plated at a density of 8000 cells/well in 96-well plates.

[9] = M. Horikawa, Pharmaceutical Res. 2002; cited from earlier work
[10] = tested on: HCT 116 human colorectal carcinoma tumor
[11] = dog; F. Lavelle et al., Seminar in Oncology (1996); cited from earlier work
physchem = conditions: water
[12] = In vitro human serum stability study; type: in vitro ADME
Source text: Peptidic drug delivery systems have also been described in PCT patent application published under No WO 00/01417 filed by […] aiming to facilitate the delivery of different drugs, such as the 10-Hydroxycamptothecin. This patent application describes the use of homeobox peptide derived from the Drosophila antennapedia homoprotein (preferably a cell-penetrating peptide (CPP) named penetratin) for conjugation to a number of cytotoxic drugs, thus enhancing their delivery and/or therapeutic effect. […] Consequently the applicant has performed in vitro human serum stability studies using the conjugate described in example 29 of this patent application No WO 00/01417.

Structure (SMILES): CCc1c2c(nc3ccc(OC(=O)CCCCCN4C(=O)CC(SC[C@H](N)C(=O)N[C@H](C(=O)N[C@@H](CCCCN)C(=O)N[C@@H](CCCNC(=N)N)C(=O)NCC(=O)N[C@@H](CC(C)C)C(=O)N[C@@H](CCCCN)C(=O)N[C@@H](CC(C)C)C(=O)N[C@@H](CCCNC(=N)N)C(=O)N[C@@H](Cc5c[nH]cn5)C(=O)N[C@H](C(=O)N[C@@H](CCCNC(=N)N)C(=O)N5CCC[C@H]5C(=O)N[C@@H](CCCNC(=N)N)C(=O)N[C@H](C(=O)N[C@H](C(=O)N[C@@H](CCCNC(=N)N)C(=O)N[C@@H](CCSC)C(=O)N[C@@H](CC(=O)O)C(=O)N[C@H](C(=O)O)C(C)C)[C@@H](C)O)C(C)C)C(C)C)C(C)C)C4=O)cc13)-c1cc3c(c(=O)n1C2)COC(=O)[C@]3(O)CC (stereo partly shown) [DPV1047-MIC-SN38] (H-C(X1)VKRGLKLRHVRPRVTRMDV-OH)
- half-life ([1]; DPV1047-linker-SN38, 2.55 μM, citrated plasma, read-out: Half life time, Dog plasma): 36 min
- SN38 Cmax and AUC versus dose of the conjugate [2]: increased linearly with the dose
- MTD as mg equivalent of SN38 ([3]; beagle dog, i.v. infusion): 6.5-9.1 mg equivalent of SN38
- WBC depletion ([3]; dog, 70 mg/kg): 94%
- signs of toxicity ([3]; dog, 70 mg/kg): gastro-intestinal toxicity, diarrhea and emesis
- Reduction in WBC at D5 (%) ([3]; dog, i.v. infusion, 10 mg/kg): −44%
- Toxic signs Day 1 ([3]; dog, i.v. infusion, 10 mg/kg): None
- Toxic signs Following Days ([3]; dog, i.v. infusion, 10 mg/kg): None
- Reduction in WBC at D5 (%) ([3]; dog, i.v. infusion, 20 mg/kg): −57%
- Toxic signs Day 1 ([3]; dog, i.v. infusion, 20 mg/kg): None
- Toxic signs Following Days ([3]; dog, i.v. infusion, 20 mg/kg): None
- Reduction in WBC at D5 (%) ([3]; dog, i.v. infusion, 40 mg/kg): −69%
- Toxic signs Day 1 ([3]; dog, i.v. infusion, 40 mg/kg): None
- Toxic signs Following Days ([3]; dog, i.v. infusion, 40 mg/kg): None
- Reduction in WBC at D5 (%) ([3]; dog, i.v. infusion, 50 mg/kg): −53%
- Toxic signs Day 1 ([3]; dog, i.v. infusion, 50 mg/kg): None
- Toxic signs Following Days ([3]; dog, i.v. infusion, 50 mg/kg): None
- Reduction in WBC at D5 (%) ([3]; dog, i.v. infusion, 70 mg/kg): −94%
- Toxic signs Day 1 ([3]; dog, i.v. infusion, 70 mg/kg): Vomit
- Toxic signs Following Days ([3]; dog, i.v. infusion, 70 mg/kg): Liquid feces D4
- MTD ([3]; dog, in vivo, iv): 50 to 70 mg/kg
- clinical signs ([3]; dogs, 10, 20, 40 and 50 mg/kg): no clinical signs
- half-life ([4]; DPV1047-linker-SN38, 2.55 μM, citrated plasma, read-out: Half life time, Human plasma): 6 to 7 min
- half-life ([5]; time to 50% by mole free SN38 released, read-out: Half life time, Mouse plasma): < 3 min
- half-life ([5]; monkey): 8 min
- half-life ([5]; rat): 3 min

Structure (SMILES): CCc1c2c(nc3ccc(O)cc13)-c1cc3c(c(=O)n1C2)COC(=O)[C@]3(O)CC [SN38, 7-ethyl-10-hydroxy-camptothecin, reference compound]
- fold more active than irinotecan as an anti-proliferative agent [6]: at least 2000 fold
- solubility in water (Solubility in water): ≤ 5 µg/mL
- IC50 [7]: 22 nM
- IC50 [8]: 7 nM

Structure (SMILES): CCc1c2c(nc3ccc(OC(=O)N4CCC(N5CCCCC5)CC4)cc13)-c1cc3c(c(=O)n1C2)COC(=O)[C@]3(O)CC [irinotecan, reference compound]
- excreted into bile [9]: > 26%
- TGI (100-T/C %) ([10]; Table 5, Q1D5, 18 (cumulative 90) μmol/kg): 90*** %
- Minimal T/C (%) ([10]; iv): 10%
- body weight loss ([3]; dog, 30 mg/kg, 20 min infusion): −8.5%
- white blood cells depletion ([3]; dog, 30 mg/kg, Day 5): 92%
- Reduction in WBC at D5 (%) ([3]; dog, i.v. infusion, 30 mg/kg): −92%
- Toxic signs Day 1 ([3]; dog, i.v. infusion, 30 mg/kg): Ptyalism; also recorded: Liquid feces; also recorded: Vomit; also recorded: Loss of balance; also recorded: Tremors (marked)
- Toxic signs Following Days ([3]; dog, i.v. infusion, 30 mg/kg): Vomit: D4
- Maximal Tolerated Dose (MTD) [11]: 30 mg/kg
- solubility (physchem): ≤ 2500 µg/mL

Structure (SMILES): CC[C@H](C)[C@H](NC(=O)[C@H](CCCCN)NC(=O)[C@@H](NC(=O)[C@H](CCC(N)=O)NC(=O)[C@H](CCCNC(=N)N)NC(=O)[C@@H](N)CSC1CC(=O)N(CCC(=O)Oc2ccc3nc4c(cc3c2)Cn2c-4cc3c(c2=O)COC(=O)[C@]3(O)CC)C1=O)[C@@H](C)CC)C(=O)N[C@@H](Cc1c[nH]c2ccccc12)C(=O)N[C@@H](Cc1ccccc1)C(=O)N[C@@H](CCC(N)=O)C(=O)N[C@@H](CC(N)=O)C(=O)N[C@@H](CCCNC(=N)N)C(=O)N[C@@H](CCCNC(=N)N)C(=O)N[C@@H](CCSC)C(=O)N[C@@H](CCCCN)C(=O)N[C@@H](Cc1c[nH]c2ccccc12)C(=O)N[C@@H](CCCCN)C(=O)N[C@@H](CCCCN)C(=O)O (stereo partly shown) [reference compound]
- half-life ([1]; Table 14, 10-Hydroxycamptothecin conjugates, read-out: Dog Plasma Half life time): 6 min
- half life time (stability) in human serum [12]: less than three
- half-life ([4]; Table 14, 10-Hydroxycamptothecin conjugates, read-out: Human Plasma Half life time): < 3 min
